From PMC11484851, “Structure of endothelin ETB receptor–Gi complex in a conformation stabilized by unique NPxxL motif” (Communications Biology, 2024)

Molecular target: T1, wild-type Gαi1 subunit (human, UniProt P63096 1-354)
T1 construct: Gαi1, human, wild type; the α chain of m4; source: Sf9 or Hi5 insect cells, co-expressed with Gβ1 and Gγ2, purified as heterotrimer (TALON, SEC)
Experiment: cryo-EM structure; purified ET-1-bound ETBR mixed with 1.2 molar excess of wild-type or dominant negative Gi1 heterotrimer (20-24 °C, 2 h), apyrase and λ-phosphatase, then 1.2 molar excess of scFv16; complex purified on 2A5 anti-ETBR resin and by SEC in LMNG/CHS/GDN with 0.1 μM ET-1; single-particle cryo-EM
Settings: both partners purified

T1 sequence (P63096 whole entry): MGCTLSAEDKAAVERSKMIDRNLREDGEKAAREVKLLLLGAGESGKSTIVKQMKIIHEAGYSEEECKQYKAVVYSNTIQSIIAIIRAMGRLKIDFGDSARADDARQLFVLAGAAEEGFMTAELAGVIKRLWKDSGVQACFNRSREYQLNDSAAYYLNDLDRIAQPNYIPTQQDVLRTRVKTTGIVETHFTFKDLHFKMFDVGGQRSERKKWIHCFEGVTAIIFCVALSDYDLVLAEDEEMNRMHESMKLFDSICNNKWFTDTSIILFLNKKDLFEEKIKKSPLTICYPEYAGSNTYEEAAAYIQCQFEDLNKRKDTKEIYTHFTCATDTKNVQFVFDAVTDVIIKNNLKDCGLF

B1: endothelin type B receptor, thermostabilized construct used for cryo-EM (R124Y, C396A, C400A, C405A, L66-S407 after 3C cleavage) (receptor, human, UniProt P24530 66-407, looked up)
chain: LAPAEVPKGDRTAGSPPRTISPPPCQGPIEIKETFKYINTVVSCLVFVLGIIGNSTLLYIIYKNKCMRNGPNILIASLALGDLLHIVIDIPINVYKLLAEDWPFGAEMCKLVPFIQKASVGITVLSLCALSIDRYRAVASWSRIKGIGVPKWTAVEIVLIWVVSVVLAVPEAIGFDIITMDYKGSYLRICLLHPVQKTAFMQFYKTAKDWWLFSFYFCLPLAITAFFYTLMTCEMLRKKSGMQIALNDHLKQRREVAKTVFCLVLVFALCWLPLHLSRILKLTLYNQNDPNRCELLSFLLVLDYIGINMASLNSCINPIALYLVSKRFKNAFKSALCCWAQS
notes: endothelin type B receptor (ETBR), human; C-terminus truncated at S407, followed by a 3C site and EGFP-His tag that was cleaved; Residues of the 3C sites probably remain after cleavage (GP before L66, LEVLFQ after S407); also called ETBR; ETB receptor; source: Sf9, purified (TALON, 3C cleavage, SEC) in LMNG/CHS with ET-1; not shown: Flag, N-terminal, cleaved; EGFP-His9, C-terminal, cleaved
Q: Does B1 bind?
A: binds
